For 167 variants, abundance fitness results are on record in the Human Domainome abundance scans (Beltran et al. 2025).

± gives the uncertainty stated by the source.

B1: Chromodomain-helicase-DNA-binding protein 4, residues 623 to 675; numbered along this chain, Q14839 (parent)
chain: MIHRILNHSVDKKGHVHYLIKWRDLPYDQASWESEDVEIQDYDLFKQSYWNHR

In this series the parent is B1. The series can be described thus: abundance fitness (aPCA) (normalised: wild type 0, dead -1); higher = more abundant; growth selection in yeast, the domain comes from the species named. The note with it: Homo sapiens.
For the variant I39M, the abundance fitness was -0.462 ± 0.14.
Consider I39V, for which the abundance fitness is -0.722 ± 0.12.
To I39K belongs -0.879 ± 0.2.
The result for I39H reads -0.39 ± 0.15; that for I39Q, -0.764 ± 0.18.
As for I39L, the abundance fitness stood at 0.026 ± 0.089.
To I39R belongs -0.756 ± 0.098; to I39Y, -0.195 ± 0.14.
On to I39T, for which the abundance fitness was -0.72 ± 0.13.
Consider I39W, for which the abundance fitness was -0.818 ± 0.13.
To I39P belongs -0.897 ± 0.16; to I39F, 0.139 ± 0.15; to I39S, -0.745 ± 0.11.
With I39G, the abundance fitness is -0.847 ± 0.12.
The result for I39E reads -1.02 ± 0.2; that for I39N, -1.06 ± 0.24.
The result for I39C reads -0.753 ± 0.2; that for I39D, -0.992 ± 0.21; that for I39A, -0.805 ± 0.12.
Regarding D36C, the abundance fitness is -0.363 ± 0.13.
For D36P, the abundance fitness was -0.909 ± 0.18.
To D36T belongs -0.2 ± 0.11; to D36Q, -0.415 ± 0.14.
The result for D36M reads -0.372 ± 0.12; that for D36H, -0.105 ± 0.11; that for D36K, -0.073 ± 0.12.
To D36I belongs -0.915 ± 0.18; to D36F, -0.267 ± 0.15.
D36R: the abundance fitness is -0.255 ± 0.084.
Turning to D36S, the abundance fitness is -0.079 ± 0.085.
In the case of D36A, the abundance fitness was -0.455 ± 0.11.
To D36E belongs -0.102 ± 0.13; to D36L, -0.402 ± 0.086; to D36G, -0.299 ± 0.1.
The result for D36W reads -0.37 ± 0.11; that for D36N, 0.134 ± 0.11; that for D36V, -0.833 ± 0.14.
For Y42L, the abundance fitness is -0.592 ± 0.31.
Regarding Y42K, the abundance fitness was -0.767 ± 0.49.
The result for Q40V reads -0.131 ± 0.085; that for Q40F, -0.548 ± 0.2; that for Q40E, -0.061 ± 0.13.
Consider Q40W, for which the abundance fitness is -0.549 ± 0.13.
For Q40H, the abundance fitness was -0.122 ± 0.11.
Q40Y: the abundance fitness is -0.504 ± 0.13.
The result for Q40I reads -0.252 ± 0.14.
The result for Q40R reads -0.161 ± 0.083.
On to Q40T, for which the abundance fitness was -0.036 ± 0.094.
For Q40P, the abundance fitness is -0.061 ± 0.11.
As for Q40D, the abundance fitness is -0.047 ± 0.11.
To Q40S belongs -0.286 ± 0.091; to Q40M, -0.14 ± 0.099.
Take Q40C: the abundance fitness is -0.043 ± 0.14.
On to Q40A, for which the abundance fitness is -0.052 ± 0.086.
To Q40K belongs 0.041 ± 0.088.
Regarding Q40L, the abundance fitness was -0.271 ± 0.092.
For the variant L44K, the abundance fitness was found to be 0.111 ± 0.2.
To L44P belongs -0.91 ± 0.098; to L44N, -0.131 ± 0.092.
The result for L44R reads 0.058 ± 0.072; that for L44D, -0.16 ± 0.087; that for L44F, -0.201 ± 0.11.
The result for L44A reads -0.014 ± 0.069; that for L44E, -0.211 ± 0.15; that for L44V, 0.074 ± 0.074.
Take L44Y: the abundance fitness was -0.089 ± 0.084.
Consider L44W, for which the abundance fitness was -0.302 ± 0.18.
For L44Q, the abundance fitness was -0.11 ± 0.12.
With L44M, the abundance fitness is 0.085 ± 0.13.
L44C: the abundance fitness was -0.293 ± 0.13.
L44G: the abundance fitness was -0.342 ± 0.073.
The result for L44S reads -0.015 ± 0.069; that for L44H, -0.034 ± 0.077.
The result for R53D reads -0.161 ± 0.26; that for R53C, -0.086 ± 0.21; that for R53E, -0.189 ± 0.25.
R53P: the abundance fitness is -0.481 ± 0.28.
The result for R53H reads -0.185 ± 0.3; that for R53Q, 0.025 ± 0.27; that for R53K, -0.22 ± 0.22.
On to R53N, for which the abundance fitness was -0.313 ± 0.48.
For the variant R53L, the abundance fitness is -0.104 ± 0.21.
The result for K46E reads -0.734 ± 0.16.
Consider K46I, for which the abundance fitness was -0.465 ± 0.14.
As to K46W, the abundance fitness was -0.856 ± 0.15.
As for K46H, the abundance fitness was -0.909 ± 0.19.
To K46Q belongs -0.485 ± 0.1; to K46A, -0.898 ± 0.16.
To K46P belongs -0.875 ± 0.13; to K46R, -0.796 ± 0.09.
To K46Y belongs -0.856 ± 0.15.
Take K46L: the abundance fitness is -0.593 ± 0.089.
Take K46N: the abundance fitness was -0.886 ± 0.16.
To K46T belongs -0.748 ± 0.13; to K46F, -0.917 ± 0.17; to K46D, -0.886 ± 0.16.
The result for K46G reads -0.846 ± 0.099; that for K46S, -0.838 ± 0.1.
To S34G belongs -0.106 ± 0.085; to S34N, -0.137 ± 0.18; to S34Q, -0.111 ± 0.12.
As to S34R, the abundance fitness was -0.081 ± 0.076.
The result for S34Y reads -0.731 ± 0.15; that for S34T, -0.377 ± 0.11.
To S34E belongs -0.004 ± 0.12.
Turning to S34A, the abundance fitness was -0.103 ± 0.1.
To S34C belongs 0.155 ± 0.1; to S34M, -0.441 ± 0.14; to S34K, 0.086 ± 0.14.
Regarding S34L, the abundance fitness was -0.411 ± 0.089.
For the variant S34H, the abundance fitness came to 0.136 ± 0.14.
As for S34P, the abundance fitness was -0.022 ± 0.1.
The result for S34I reads -0.852 ± 0.23; that for S34F, -0.618 ± 0.12.
To E35K belongs -0.844 ± 0.17; to E35S, -0.131 ± 0.089; to E35I, -0.765 ± 0.21.
The result for E35F reads -0.934 ± 0.21.
Turning to E35T, the abundance fitness is -0.45 ± 0.12.
The result for E35P reads -0.874 ± 0.18; that for E35G, -0.22 ± 0.1.
For E35W, the abundance fitness was -0.684 ± 0.15.
To E35M belongs -0.874 ± 0.15; to E35Y, -0.757 ± 0.15.
For the variant E35C, the abundance fitness is -0.717 ± 0.16.
The result for E35A reads -0.141 ± 0.11; that for E35L, -0.833 ± 0.1.
On to E35Q, for which the abundance fitness was -0.391 ± 0.12.
In the case of E35R, the abundance fitness was -0.882 ± 0.1.
The result for E35V reads -0.809 ± 0.12; that for E35D, -0.332 ± 0.18.
The result for E35H reads -0.769 ± 0.24; that for D41H, -0.459 ± 0.19.
The result for D41S reads -0.481 ± 0.09; that for D41I, -0.929 ± 0.19; that for D41M, -0.79 ± 0.14.
D41K: the abundance fitness is -0.555 ± 0.14.
To D41Y belongs -0.431 ± 0.13.
The result for D41G reads -0.283 ± 0.093.
Take D41V: the abundance fitness was -0.81 ± 0.11.
As for D41Q, the abundance fitness is -0.191 ± 0.14.
The result for D41R reads -0.863 ± 0.12; that for D41N, -0.151 ± 0.11.
The result for D41E reads -0.507 ± 0.13.
The result for D41C reads -0.807 ± 0.14.
D41T: the abundance fitness was -0.892 ± 0.15.
For the variant D41F, the abundance fitness was -0.331 ± 0.17.
For D41L, the abundance fitness is -0.846 ± 0.13.
Take D41W: the abundance fitness is -0.529 ± 0.12.
The result for S48V reads -0.011 ± 0.075; that for S48Q, -0.053 ± 0.1; that for S48Y, 0.093 ± 0.13.
For the variant S48R, the abundance fitness was 0.14 ± 0.075.
With S48H, the abundance fitness stood at 0.119 ± 0.12.
Regarding S48C, the abundance fitness was -0.083 ± 0.12.
To S48D belongs 0.043 ± 0.12; to S48T, -0.124 ± 0.096.
Regarding S48F, the abundance fitness is -0.236 ± 0.11.
The result for S48E reads 0.067 ± 0.087; that for S48M, 0.016 ± 0.091; that for S48K, 0.043 ± 0.097.
Take S48P: the abundance fitness is -0.628 ± 0.13.
The result for S48L reads -0.01 ± 0.076; that for S48G, -0.206 ± 0.087; that for S48A, 0.07 ± 0.078.
Turning to S48W, the abundance fitness is -0.412 ± 0.1.
To D43M belongs -0.262 ± 0.13.
